What all share (experiment): SPR
The target of test [1] is hAPN ectodomain K379A mutant (human, UniProt P15144 62-963, K379A).
In test [2] the target is T1, pAPN ectodomain E421A mutant (pig, UniProt P15145 58-961, E421A).
T1 sequence: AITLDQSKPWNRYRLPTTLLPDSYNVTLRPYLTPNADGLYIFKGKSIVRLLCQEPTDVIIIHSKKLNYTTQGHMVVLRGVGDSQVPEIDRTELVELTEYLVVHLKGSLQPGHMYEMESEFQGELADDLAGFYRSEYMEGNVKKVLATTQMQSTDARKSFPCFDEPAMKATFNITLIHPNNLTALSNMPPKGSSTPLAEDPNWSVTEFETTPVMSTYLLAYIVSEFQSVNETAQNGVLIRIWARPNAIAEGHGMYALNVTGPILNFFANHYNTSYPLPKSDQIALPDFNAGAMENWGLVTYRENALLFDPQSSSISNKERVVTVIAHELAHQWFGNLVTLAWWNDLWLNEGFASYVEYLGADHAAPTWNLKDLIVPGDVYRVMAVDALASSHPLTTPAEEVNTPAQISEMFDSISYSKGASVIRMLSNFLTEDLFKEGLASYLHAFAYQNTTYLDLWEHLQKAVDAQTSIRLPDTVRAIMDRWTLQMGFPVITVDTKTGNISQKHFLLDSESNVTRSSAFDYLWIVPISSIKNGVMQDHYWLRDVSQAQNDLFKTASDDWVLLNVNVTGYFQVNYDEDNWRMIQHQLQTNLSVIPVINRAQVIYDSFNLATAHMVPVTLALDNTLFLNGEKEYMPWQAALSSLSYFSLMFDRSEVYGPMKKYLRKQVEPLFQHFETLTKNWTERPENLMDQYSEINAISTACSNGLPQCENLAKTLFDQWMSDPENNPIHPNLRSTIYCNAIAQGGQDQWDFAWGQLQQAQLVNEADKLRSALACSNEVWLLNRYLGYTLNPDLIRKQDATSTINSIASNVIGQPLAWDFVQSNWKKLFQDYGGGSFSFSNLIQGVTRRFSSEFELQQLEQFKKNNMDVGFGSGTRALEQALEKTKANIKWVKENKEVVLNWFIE

Test [3] has as its target hAPN ectodomain H789A mutant (human, UniProt P15144 62-963, H789A).
Test [4] deals with T2, human aminopeptidase N (hAPN) ectodomain, residues 62-963, wild type (human, UniProt P15144 62-963).
T2 chain: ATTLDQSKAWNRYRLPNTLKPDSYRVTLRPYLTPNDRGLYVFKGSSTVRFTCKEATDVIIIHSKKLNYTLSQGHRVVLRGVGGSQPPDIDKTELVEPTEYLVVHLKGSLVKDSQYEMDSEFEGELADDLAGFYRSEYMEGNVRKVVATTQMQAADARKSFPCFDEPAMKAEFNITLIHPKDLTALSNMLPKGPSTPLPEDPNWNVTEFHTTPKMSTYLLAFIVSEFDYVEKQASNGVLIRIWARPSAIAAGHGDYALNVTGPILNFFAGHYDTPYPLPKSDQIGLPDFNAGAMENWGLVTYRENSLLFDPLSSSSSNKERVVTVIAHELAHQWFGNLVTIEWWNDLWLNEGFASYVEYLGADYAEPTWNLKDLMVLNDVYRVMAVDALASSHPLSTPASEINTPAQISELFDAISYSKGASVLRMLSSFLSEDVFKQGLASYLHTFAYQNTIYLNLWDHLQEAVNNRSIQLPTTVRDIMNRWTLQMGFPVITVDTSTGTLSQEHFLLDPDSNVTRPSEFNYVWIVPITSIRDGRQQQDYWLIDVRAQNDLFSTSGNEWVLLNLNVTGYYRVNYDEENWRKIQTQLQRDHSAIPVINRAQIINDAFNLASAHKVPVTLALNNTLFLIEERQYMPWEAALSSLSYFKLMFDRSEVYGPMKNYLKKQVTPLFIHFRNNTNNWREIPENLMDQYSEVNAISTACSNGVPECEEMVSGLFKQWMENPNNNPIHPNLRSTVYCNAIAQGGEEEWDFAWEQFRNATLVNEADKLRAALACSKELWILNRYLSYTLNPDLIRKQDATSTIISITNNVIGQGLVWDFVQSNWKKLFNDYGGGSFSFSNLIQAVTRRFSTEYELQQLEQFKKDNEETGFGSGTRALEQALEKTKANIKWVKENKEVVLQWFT

Test [5] concerns the target hAPN ectodomain E426A mutant (human, UniProt P15144 62-963, E426A).
The target in test [6] is T3, pAPN ectodomain W424A mutant (pig, UniProt P15145 58-961, W424A).
T3 sequence: T1 sequence with A364E, W367A

Residue numbers refer to the chain shown, from its start.

Sequence of hAPN ectodomain K379A mutant (P15144 62-963 K379A): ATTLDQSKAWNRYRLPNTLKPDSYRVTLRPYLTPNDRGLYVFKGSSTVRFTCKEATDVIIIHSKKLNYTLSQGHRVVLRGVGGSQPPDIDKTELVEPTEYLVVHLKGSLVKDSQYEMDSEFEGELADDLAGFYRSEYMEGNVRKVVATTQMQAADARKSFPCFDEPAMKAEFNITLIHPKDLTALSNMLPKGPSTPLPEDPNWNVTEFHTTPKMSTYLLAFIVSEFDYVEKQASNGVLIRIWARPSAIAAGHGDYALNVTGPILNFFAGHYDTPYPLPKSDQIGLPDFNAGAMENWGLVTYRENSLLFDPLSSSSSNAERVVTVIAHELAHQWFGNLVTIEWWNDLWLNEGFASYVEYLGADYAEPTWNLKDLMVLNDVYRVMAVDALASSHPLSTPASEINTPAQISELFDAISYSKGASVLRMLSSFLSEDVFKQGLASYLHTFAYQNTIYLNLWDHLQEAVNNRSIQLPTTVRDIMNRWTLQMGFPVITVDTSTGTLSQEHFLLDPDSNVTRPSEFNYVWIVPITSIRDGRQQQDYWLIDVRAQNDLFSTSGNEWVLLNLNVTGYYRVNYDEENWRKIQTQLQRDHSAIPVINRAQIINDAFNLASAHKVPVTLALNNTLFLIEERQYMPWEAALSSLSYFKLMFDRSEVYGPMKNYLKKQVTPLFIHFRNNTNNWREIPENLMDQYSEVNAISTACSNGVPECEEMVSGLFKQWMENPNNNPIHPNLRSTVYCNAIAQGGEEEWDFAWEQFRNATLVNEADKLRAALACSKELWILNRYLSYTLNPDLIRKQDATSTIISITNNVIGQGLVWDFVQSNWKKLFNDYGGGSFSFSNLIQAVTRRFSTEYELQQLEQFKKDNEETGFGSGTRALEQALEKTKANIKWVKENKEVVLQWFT

B1: PDCoV spike (S) protein receptor binding domain (RBD), residues 300-419, wild type (domain or fragment)
chain: PKLPELEVVQLNISAHMDFGEARLDSVTINGNTSYCVTKPYFRLETNFMCTGCTMNLRTDTCSFDLSAVNNGMSFSQFCLSTESGACEMKIIVTYVWNYLLRQRLYVTAVEGQTHTGTTS
In the case of B1, the Kd (usually a measure of binding affinity in units of concentration) was determined as 444 µM in test [1]; 125 µM in test [2]; 6.25 µM in test [3]; 3.71 µM in test [4]; 334 µM in test [5]; 116 µM in test [6].

For the origin of these results see publication PMC8933513 (2022).
